Measured values from publication PMC3418226.

Biological target: SAP (UniProt O60880)
Experiment: GST-SAP pull-down, anti-myc blot
Conditions: reference: myc-CD3ζ wild type

With CD3ζ (from UniProt P20963) Y72F the “binding against the reference” value (sites Y72) was “weaker”.
“CD3ζ (from UniProt P20963) Y72F/Y83F (first ITAM)” was tested, and the “binding against the reference” value (sites Y72,Y83) was “lost”.
With CD3ζ (from UniProt P20963) Y83F the “binding against the reference” value (sites Y83) was “weaker”.
